Measured values: the supplement of paper PMC9112550, “Optimization of the antimicrobial peptide Bac7 by deep mutational scanning” (BMC Biology, 2022)

System: Escherichia coli TOP10
Experiment: shrunken log2 fold change of peptide-encoding DNA abundance (4.5 h post-induction vs induction); higher = less antimicrobial activity (less host growth inhibition)
Conditions: time post-induction: 4.5 h; library: site-saturation at positions 5, 18, 19, 20
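Note: peptides expressed intracellularly from a pBAD plasmid library in pooled LB shake-flask culture, induced with 0.3% L-arabinose, DNA abundance read by NGS, three biological replicates, DESeq2 with apeglm shrinkage.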

Sequence	shrunken log2 fold change
RRIRFRPPRLPRPRPRPPVRPRP	0.443
RRIRHRPPRLPRPRPRPIISPRP	-0.247
RRIRKRPPRLPRPRPRPIHDPRP	0.00115
RRIRCRPPRLPRPRPRPPDSPRP	-0.0091
RRIRIRPPRLPRPRPRPMRAPRP	1.01
RRIRRRPPRLPRPRPRPWGRPRP	0.101
RRIRMRPPRLPRPRPRPMMDPRP	0.0325
RRIRQRPPRLPRPRPRPCNTPRP	-0.257
RRIRERPPRLPRPRPRPNNAPRP	-0.162
RRIRCRPPRLPRPRPRPGLNPRP	-0.0525
RRIRVRPPRLPRPRPRPQHLPRP	-0.117
RRIRQRPPRLPRPRPRPPVIPRP	-0.498
RRIRNRPPRLPRPRPRPAIKPRP	-0.383
RRIRYRPPRLPRPRPRPVKKPRP	-0.0286
RRIRSRPPRLPRPRPRPNKKPRP	-0.194
RRIRERPPRLPRPRPRPYYKPRP	-0.231
RRIRRRPPRLPRPRPRPITFPRP	0.058
RRIRHRPPRLPRPRPRPVRNPRP	0.0796
RRIRKRPPRLPRPRPRPMVNPRP	1.55
RRIRERPPRLPRPRPRPIHTPRP	0.0013
RRIRCRPPRLPRPRPRPAIPPRP	-0.246
RRIRRRPPRLPRPRPRPDVRPRP	0.0483
RRIRKRPPRLPRPRPRPMERPRP	-0.024
RRIRDRPPRLPRPRPRPQDEPRP	-0.166
RRIRLRPPRLPRPRPRPWWQPRP	-0.179

Sequence	shrunken log2 fold change
RRIRVRPPRLPRPRPRPISVPRP	-0.131
RRIRTRPPRLPRPRPRPCVQPRP	0.0274
RRIRYRPPRLPRPRPRPMDWPRP	0.0155
RRIRKRPPRLPRPRPRPLHDPRP	0.169
RRIRYRPPRLPRPRPRPGIDPRP	-0.16
RRIRGRPPRLPRPRPRPVFCPRP	0.206
RRIRHRPPRLPRPRPRPLHAPRP	0.297
RRIRSRPPRLPRPRPRPRLLPRP	0.229
RRIRPRPPRLPRPRPRPSKPPRP	0.0728
RRIRTRPPRLPRPRPRPDHHPRP	-0.474
RRIRMRPPRLPRPRPRPWLHPRP	-0.493
RRIRQRPPRLPRPRPRPVTHPRP	4.01
RRIRTRPPRLPRPRPRPVWPPRP	0.332
RRIRWRPPRLPRPRPRPDQMPRP	0.128
RRIRQRPPRLPRPRPRPSVYPRP	-0.643
RRIRVRPPRLPRPRPRPSFMPRP	-0.384
RRIRIRPPRLPRPRPRPMGIPRP	0.000142
RRIRHRPPRLPRPRPRPEAHPRP	-0.00101
RRIRNRPPRLPRPRPRPDPAPRP	0.172
RRIRTRPPRLPRPRPRPVDEPRP	-0.146
RRIRERPPRLPRPRPRPIRCPRP	0.0648
RRIRDRPPRLPRPRPRPTQHPRP	0.396
RRIRGRPPRLPRPRPRPWGPPRP	0.427
RRIRFRPPRLPRPRPRPKNGPRP	-0.0366
RRIRPRPPRLPRPRPRPDKWPRP	-0.0254
